In the supplement of paper PMC9170038:

Test system: K4 kissing-loop RNA reporter
Experiment: apparent KD of K4 kissing-loop reporter; higher = weaker reporter binding
Details: Eterna round: R107
Description: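 RNA-MaP round R107: designed RNA switches with theophylline, tryptophan, arginine or FMN aptamers are transcribed on-chip within common flanks. They are titrated with a labelled K4 kissing-loop RNA reporter in RNA-MaP buffer (100 mM Tris pH 7.5, 80 mM KCl, 4 mM MgCl2), without ligand or with the indicated ligand. Median apparent KD per design.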

[1] = input ligand: theophylline 20 uM
[2] = input ligand: tryptophan 2.4 mM
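Further: bound reporter read as fluorescence of individual clusters on recovered sequencing chips by microscopy, with normalized cluster intensities fitted with a binding model.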

Sequence | apparent KD of K4 kissing-loop reporter (input ligand: FMN 200 uM) [nM] | apparent KD of K4 kissing-loop reporter (input ligand: arginine 13.2 mM) [nM] | apparent KD of K4 kissing-loop reporter (input ligand: none) [nM] | apparent KD of K4 kissing-loop reporter [1] [nM] | apparent KD of K4 kissing-loop reporter [2] [nM]
CGUGAUGUAUGGCGGUUUGUCACUUAGGAUCAGGAUAUAUAAACAAAUAGAAGGGAUGGCGGAGUGAUGUUCCGCCGGCCGCCAU [FMN A Exl V8] | 173 | 128 | 161 | 150 | 148
GUACGCUUCCGAGUGAUGUUCGGAAAUCGCUAGGAUAUCGCUUUUGCGAGAAGGAGCGCAAUGAGGAAACUCGUUGUUAGUGUAC [FMN A 27] | 164 | 146 | 177 | 171 | 163
CCAUUCUUUUACGAUACCAGUUUUAUUUAGUUAUUCAUAACCCUUGCCGAGUGAUGUUCGGACCCUUGGCAGCGUUUGCGAGAGG [zaadvmullin] | 286 | 299 | 355 | 411 | 272
GUAAGACCGGGACUCCAGUGAUGUUGGAGGCAGGAUAUCCAGUCGAGGAGAAGGGCCAGGGAUAUCGAGCUGCUCGGUUCGUAGU [Rerareatra] | 81.8 | 101 | 103 | 107 | 66.5
AAGGACGGGACUUCCUCGCCGGAUAGAGAUACCAGCCCAGCAAUGGGCCCUUGGCAGCUCACUGACCUCAGUGAUGUUGAGGUUC [Arange] | 289 | 203 | 240 | 193 | 210
UCGAGUUGACGAAGAGUCAACUCGUGUGAUACCAGUGACGAAAGUCACCCUUGGCAGCACUAUGCUAGUGAUGUUGGUAUUUAAG [#08 K4 Theophylline A Same State] | 190 | 92.7 | 179 | 105 | 127
UGGACCUGACUCGAUAAGAGUCAAUGGGAUACCAGCCACGAAAGUGGCCCUUGGCAGCUCUACCAGUGAUGUUGGUCAAGGUCCU [#SwitchBubble 8 #StaticStem] | 1050 | 511 | 860 | 716 | 899
GCUAUGGUAGGAAGGAGCGCGGACGAUAUUUAUCGAGUGAUGUUCGAUUAAUUAAUUUUAACGCAGGUAGGUCGCCUACUAUAGC [Arginine B K4 28] | 135 | 82.2 | 105 | 88.2 | 106
CGCAGUGAUGUUGCGAGUAGCUACAGGGAAGGAGCGCUCUAGUGAGCAGGUAGGUCGCCCACGCAGUGAUGUUGCGUCAUAGGGU [Exclusion Arg A GF9] | 116 | 110 | 113 | 113 | 101
GCCGUAGAUUGAAGGAGCGCCUUCUUACCAAGAGUGAUGUUCUUAGGUACCAUGUUCAGUAGGCAGGUAGGUCGCAAUCUACGGC | 499 | 441 | 484 | 647 | 489
GGCAUAUAAAAUUGCCUAGAGAGAAAGGAUACCAGCACCCGGCGGUGCCCUUGGCAGCCUAGCCCAGUGAUGUUGGGUCCUCUAA [Esinvege] | 237 | 130 | 189 | 235 | 223
AGACUACCACACUGUCAAUAGACAGUGUACUAGGAUAUGCUGAUAAGCAGAAGGAGUGAUGUUCCGAGGUAGUCAAUAAAAUAAU [FmnAX 13 U28+G66] | 326 | 258 | 253 | 330 | 242
AGUGAUGUUGUGUUGUGUUAGGGAAGUGAUCGAGGACCGGUACGGCCGCCACUCGAGUGAUGAGUGAGUGAUGUUUGUUUAGGGA [whbob_SS_Tryp_A_m8] | 926 | 1290 | 395 | 3230 | 375
GCUACCUAUGCAGGAUAUGGUAUUACGAGUGAUGUUCGAGGCGAAUAGAGUGAUGUUCUAUUUCCACCAGAAGGGCAUAGGUAGC | 143 | 97.1 | 125 | 136 | 124
CGUUUAUAGCAGGAUACCAGUACCCAUUAUGUACGUUUAUAGUAGAGUGAUGUUCUAAAGUACCCUUGGCAGCUUCCUGUGACCC [ExTheophylB.Aa] | 166 | 168 | 181 | 194 | 145
ACGUAUAUCAGAGGAUAUCGUAUUAAUAUUUUAUCUAUAUAGUUUUGCAGUGAUGUUGCAAUUAUUCGAGAAGGCUGAUUUACGA [JR_SSFMNB_Sub024] | 86.1 | 95.6 | 75.3 | 89.2 | 69.2
AUUAAUUUCAGAGGAUAUGCUUAAUUGAUUUAUUAUUAUCUAUUAUGCAGUGAUGUUGCAUAUUUUGCAGAAGGCUGAUUUAUAA [JR_SSFMNB_Sub018] | 123 | 156 | 140 | 156 | 125
CUGACGCUGAUACGGUGGCCGCUGGUCGUGCGAGGACCGGUACGGCCGCCACUCGCAUGAGUGAUGUUCAUGUGUCGUCGUCGUC [#07 K4 Tryptophan A Exclusion] | 122 | 108 | 113 | 105 | 123
GAGCGGUGGAGGUUACCGCUAUUCUGAGAAGGAGCGCAGAAGACUGCAGGUAGGUCGCUUAGAGCUUGCAGUGAUGUUGCAAGUU [KL-SSArg-A13] | 173 | 122 | 141 | 160 | 127
AGAUCUGUAACAGAUACCAGAGGACGAUGAUCGGAUAGUGAUGUUAUCUGUCAGUCGUCGCUCCCUUGGCAGCUGUUACAGAUCA [Omei KL Theo B SS B v1] | 176 | 147 | 174 | 135 | 157
AUGGUGGAUCAGUGAUGUUGGUGGAGUAGGUAGGAUAUGAGUGAUGUUAGAAGGAUCGGAGUGAUGUUCCAGGUGGUUGUGUUGU [KL-SSFMN-A3] | 540 | 302 | 548 | 516 | 389
